Values of other authors, collected in publication PMC8061042.
pKd: −log10 of the molar value.

Molecular target: MS1
Sequence (main, as listed by the source): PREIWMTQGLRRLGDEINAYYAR

pKd: 8.72
Substance: MCL-1 (from UniProt Q07820)
